In article PMC7688916 (2020):
Numbering of substitutions follows the chain as printed. Names and notes keep the numbering of the source. Where two headings read alike, the source gives them in different places. One block for each molecule: values may come before it.

How the values were obtained:
Assay in all cases: split reporter (BiFC, NanoBiT); split-GFP (mGFP2 split between residues 157 and 158) in Hfx. volcanii transformants in vivo; eight combinations of fusions a pair, highest relative fluorescence (rf) given; cells in basal salts (3 M NaCl, 150 mM MgSO4, 50 mM KCl) at OD600 1; rf > 5 clear interaction, rf < 1 no interaction
[1] = molecular target: GvpL fused to NGFP or CGFP (split-GFP) (Halobacterium salinarum PHH1)
[2] = molecular target: GvpF fused to NGFP or CGFP (split-GFP) (Halobacterium salinarum PHH1)
[3] = molecular target: GvpI fused to NGFP or CGFP (split-GFP) (Halobacterium salinarum PHH1)
[4] = molecular target: GvpG fused to NGFP or CGFP (split-GFP) (Halobacterium salinarum PHH1)
[5] = molecular target: GvpF fused to NGFP or CGFP (split-GFP) (Halobacterium salinarum PHH1); remark: listed apart in the source
[6] = molecular target: GvpI fused to NGFP or CGFP (split-GFP) (Halobacterium salinarum PHH1); remark: listed apart in the source
[7] = molecular target: GvpK fused to NGFP or CGFP (split-GFP) (Halobacterium salinarum PHH1)
[8] = molecular target: GvpH fused to NGFP or CGFP (split-GFP) (Halobacterium salinarum PHH1)
[9] = molecular target: GvpM fused to NGFP or CGFP (split-GFP) (Halobacterium salinarum PHH1)
[10] = molecular target: GvpJ fused to NGFP or CGFP (split-GFP) (Halobacterium salinarum PHH1)
[11] = molecular target: GvpL fused to NGFP or CGFP (split-GFP) (Halobacterium salinarum PHH1); remark: listed apart in the source
[12] = molecular target: GvpG fused to NGFP or CGFP (split-GFP) (Halobacterium salinarum PHH1); remark: listed apart in the source

Sequence of GvpL fused to NGFP or CGFP (split-GFP) (Halobacterium salinarum PHH1) (Q9HI27 whole entry, the tested form may be a part): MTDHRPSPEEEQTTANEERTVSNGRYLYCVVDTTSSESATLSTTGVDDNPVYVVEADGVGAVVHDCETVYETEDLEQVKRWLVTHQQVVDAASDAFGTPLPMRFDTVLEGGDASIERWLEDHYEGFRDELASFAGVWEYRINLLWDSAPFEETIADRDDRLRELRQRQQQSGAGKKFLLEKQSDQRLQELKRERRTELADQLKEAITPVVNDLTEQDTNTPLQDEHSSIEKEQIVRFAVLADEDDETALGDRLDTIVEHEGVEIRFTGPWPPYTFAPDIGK
Sequence of GvpF fused to NGFP or CGFP (split-GFP) (Halobacterium salinarum PHH1) (P24370 whole entry, the tested form may be a part): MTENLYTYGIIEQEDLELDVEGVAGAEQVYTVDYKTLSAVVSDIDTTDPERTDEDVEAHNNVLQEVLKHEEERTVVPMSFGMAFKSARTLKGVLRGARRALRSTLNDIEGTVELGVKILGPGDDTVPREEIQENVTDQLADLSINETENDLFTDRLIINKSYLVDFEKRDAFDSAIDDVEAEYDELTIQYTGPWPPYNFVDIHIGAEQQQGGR
Sequence of GvpG fused to NGFP or CGFP (split-GFP) (Halobacterium salinarum PHH1) (P24371 whole entry, the tested form may be a part): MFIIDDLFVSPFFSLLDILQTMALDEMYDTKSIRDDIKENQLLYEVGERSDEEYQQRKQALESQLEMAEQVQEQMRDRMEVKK

Molecule: GvpI fused to NGFP or CGFP (split-GFP) (natural protein)
highest relative fluorescence (rf) [1]: 13.7 rf | highest relative fluorescence (rf) [2]: 6.3 rf

highest relative fluorescence (rf) [1]: 7.4 rf
Molecule: GvpK fused to NGFP or CGFP (split-GFP) (natural protein)

Molecule: GvpF fused to NGFP or CGFP (split-GFP) (natural protein)
highest relative fluorescence (rf) [1]: 16.6 rf | relative fluorescence (rf) [2]: 1.5 rf

highest relative fluorescence (rf) [3]: 20 rf | highest relative fluorescence (rf) [1]: 11.4 rf | highest relative fluorescence (rf) [2]: 6.3 rf
Molecule: GvpH fused to NGFP or CGFP (split-GFP) (natural protein)

Molecule: GvpG fused to NGFP or CGFP (split-GFP) (natural protein)
highest relative fluorescence (rf) [1]: 77.5 rf | highest relative fluorescence (rf) [2]: 5 rf | relative fluorescence (rf) [4]: 3.5 rf

highest relative fluorescence (rf) [5]: < 1 rf
B1: GvpA fragment A44-76 fused to NGFP or CGFP (split-GFP) (domain or fragment)
chain: VAASVDTFLHYAEEIAKIEQAELTAGAEAAPEA

highest relative fluorescence (rf) [6]: < 1 rf | highest relative fluorescence (rf) [7]: < 1 rf | highest relative fluorescence (rf) [8]: < 1 rf | highest relative fluorescence (rf) [9]: < 1 rf | highest relative fluorescence (rf) [10]: < 1 rf | highest relative fluorescence (rf) [11]: < 1 rf | highest relative fluorescence (rf) [5]: 20 rf | relative fluorescence (rf) [5]: 15 to 18 rf | highest relative fluorescence (rf) [12]: < 1 rf
B2: GvpA fused to NGFP or CGFP (split-GFP) (natural protein)
chain: MAQPDSSGLAEVLDRVLDKGVVVDVWARVSLVGIEILTVEARVVAASVDTFLHYAEEIAKIEQAELTAGAEAAPEA

relative fluorescence (rf) [5]: < 6 rf
B3: GvpA R28A (split-GFP fusion) (natural protein)
chain: B2 chain with R28A

relative fluorescence (rf) [5]: < 6 rf
B4: GvpA E40A (split-GFP fusion) (natural protein)
chain: B2 chain with E40A

relative fluorescence (rf) [5]: < 6 rf
B5: GvpA D24A (split-GFP fusion) (natural protein)
chain: B2 chain with D24A

relative fluorescence (rf) [5]: < 6 rf
B6: GvpA R28D (split-GFP fusion) (natural protein)
chain: B2 chain with R28D

relative fluorescence (rf) [5]: < 6 rf
B7: GvpA G20D (split-GFP fusion) (natural protein)
chain: B2 chain with G20D

relative fluorescence (rf) [5]: < 6 rf
B8: GvpA G20A (split-GFP fusion) (natural protein)
chain: B2 chain with G20A

relative fluorescence (rf) [5]: < 6 rf
B9: GvpA D24Y (split-GFP fusion) (natural protein)
chain: B2 chain with D24Y

highest relative fluorescence (rf) [5]: < 1 rf
B10: GvpA fragment A20-47 fused to NGFP or CGFP (split-GFP) (domain or fragment)
chain: GVVVDVWARVSLVGIEILTVEARVVAAS

highest relative fluorescence (rf) [5]: 41 rf
B11: GvpA fragment A1-22 fused to NGFP or CGFP (split-GFP) (domain or fragment)
chain: MAQPDSSGLAEVLDRVLDKGVV
